From US20210032312A1 (Janssen / Centocor, published 2021)
Where a chain is given by its changes, count along the chain named. In names and notes the source's numbering stands.

B1: P283DR9P1364_H9 (designed binder)
chain: LPAPKNLVVSRVTEDSARLSWTAPDAAFDSFSISYIEYPEIPGGEAIVLTVPGSERSYDLTGLKPGTEYWVPIWGVKGGIQSWPLSAIFTT
notes: FN3 domain
B2: P283BR9P1363_G5 (designed binder)
chain: LPAPKNLVVSRVTEDSARLSWYRATTPAPHFDSFLIQYQESEKVGEAIVLTVPGSERSYDLTGLKPGTEYTVSIYGVDVKWEGNRPVASNPLSAIFTT
notes: FN3 domain
B3: P283DR9P1364_F6 (designed binder)
chain: LPAPKNLVVSRVTEDSARLSWTAPDAAFDSFTIAYPEREQDKWGEAIVLTVPGSERSYDLTGLKPGTEYWVIIQGVKGGRPSTPLSAILTT
notes: FN3 domain
B4: P283DR9P1364_F8 (designed binder)
chain: LPAPKNLVVSRVTEDSARLSWTAPDAAFDSFAIAYPEWPPGEAIVLTVPGSERSYDLTGLKPGTEYFVIIYGVKGGWTSPPLSAIFTT
notes: FN3 domain
B5: CD8S396 (designed binder)
chain: LPAPKNLVVSRVTEDSARLSWTAPDAAFDSFYITYPEWPDPGGEAIVLTVPGSERSYDLTGLKPGTEYFVVIYGVKGGEIYSPLSAIFTT
notes: W32Y mutant of P282DR9P1359_C5; the entry holds the mutation
B6: CD8S398 (designed binder)
chain: B5 chain with Y32S
notes: W32S mutant of P282DR9P1359_C5; the entry holds the mutation
B7: CD8S404 (designed binder)
chain: B5 chain with Y32W, P36A
notes: P36A mutant of P282DR9P1359_C5; the entry holds the mutation
B8: CD8S397 (designed binder)
chain: B5 chain with Y32Q
notes: W32Q mutant of P282DR9P1359_C5; the entry holds the mutation
B9: CD8S400 (designed binder)
chain: B5 chain with Y32W, W38L
notes: W38L mutant of P282DR9P1359_C5; the entry holds the mutation
B10: CD8S402 (designed binder)
chain: B5 chain with Y32W, D40P
notes: D40P mutant of P282DR9P1359_C5; the entry holds the mutation
B11: CD8S401 (designed binder)
chain: B5 chain with Y32W, W38I
notes: W38I mutant of P282DR9P1359_C5; the entry holds the mutation
B12: CD8S399 (designed binder)
chain: B5 chain with Y32W, W38Y
notes: W38Y mutant of P282DR9P1359_C5; the entry holds the mutation
B13: CD8S389 (designed binder)
chain: LPAPKNLVVSRVTEDSARLSWTAPDAAFDSFGILYYEPVDSGEAITLPVPGSERSYDLTGLKPGTEYFVVITGVKGGAPSTPLGTIFTT
notes: W68F mutant of P282ER9P1360_C8; the entry holds the mutation
B14: CD8S391 (designed binder)
chain: B13 chain with F68H
notes: W68H mutant of P282ER9P1360_C8; the entry holds the mutation
B15: CD8S390 (designed binder)
chain: B13 chain with F68Y
notes: W68Y mutant of P282ER9P1360_C8; the entry holds the mutation
B16: CD8S405 (designed binder)
chain: B13 chain with P48T, F68W
notes: P48T mutant of P282ER9P1360_C8; the entry holds the mutation
B17: CD8S371 (designed binder)
chain: LPAPKNLVVSRVTEDSARLSWTAPDAAFDSFQIAYPEYPPPGEAIVLTVPGSERSYDLTGLKPGTEYFVIIQGVKGGVESWPLSAIFTT
notes: Printed as W48Y mutant of P282DR9P1359_F5; the entry holds the mutation
B18: CD8S374 (designed binder)
chain: B17 chain with Y38W, W81Y
notes: W81Y mutant of P282DR9P1359_F5; the entry holds the mutation
B19: CD8S403 (designed binder)
chain: B17 chain with Q32A, P36A, Y38W, P41Q, I70V, Q72Y, V78S, E79Y, W81A
notes: P36A mutant of P282DR9P1359_F7; the entry holds the mutation
B20: CD8S375 (designed binder)
chain: B17 chain with Y38W, W81L
notes: W81L mutant of P282DR9P1359_F5; the entry holds the mutation
B21: CD8S392 (designed binder)
chain: B17 chain with Q32A, P41Q, I70V, Q72Y, V78S, E79Y, W81A
notes: W38Y mutant of P282DR9P1359_F7; the entry holds the mutation
B22: CD8S394 (designed binder)
chain: B17 chain with Q32A, Y38I, P41Q, I70V, Q72Y, V78S, E79Y, W81A
notes: W38I mutant of P282DR9P1359_F7; the entry holds the mutation
B23: CD8S372 (designed binder)
chain: B17 chain with Y38L
notes: Printed as W48L mutant of P282DR9P1359_F5; the entry holds the mutation
B24: CD8S373 (designed binder)
chain: B17 chain with Y38I
notes: Printed as W48I mutant of P282DR9P1359_F5; the entry holds the mutation
B25: CD8S393 (designed binder)
chain: B17 chain with Q32A, Y38L, P41Q, I70V, Q72Y, V78S, E79Y, W81A
notes: W38L mutant of P282DR9P1359_F7; the entry holds the mutation
B26: CD8S395 (designed binder)
chain: B17 chain with Q32A, Y38H, P41Q, I70V, Q72Y, V78S, E79Y, W81A
notes: W38H mutant of P282DR9P1359_F7; the entry holds the mutation
B27: CD8S376 (designed binder)
chain: B17 chain with Y38W, W81S
notes: W81S mutant of P282DR9P1359_F5; the entry holds the mutation
B28: CD8S377 (designed binder)
chain: B17 chain with Y38W, W81E
notes: W81E mutant of P282DR9P1359_F5; the entry holds the mutation
B29: CD8S378 (designed binder)
chain: B1 chain with S32A, S34T, Y38K, P39E, E40H, P42E, G43E, I80A, Q81N
notes: D43E mutant of P282DR9P1359_G7; the entry holds the mutation
B30: CD8S379 (designed binder)
chain: B1 chain with S32A, S34T, Y38K, P39E, E40H, P42E, G43S, I80A, Q81N
notes: D43S mutant of P282DR9P1359_G7; the entry holds the mutation
B31: CD8S380 (designed binder)
chain: B1 chain with S32A, S34T, Y38K, P39E, E40H, P42E, G43D, W70Y, I80A, Q81N
notes: W70Y mutant of P282DR9P1359_G7; the entry holds the mutation
B32: CD8S388 (designed binder)
chain: B1 chain with S32A, S34T, Y38K, P39E, E40H, P42E, G43D, I80A
notes: N81Q mutant of P282DR9P1359_G7; the entry holds the mutation
B33: CD8S387 (designed binder)
chain: B1 chain with S32A, S34T, Y38K, P39E, E40H, P42E, G43D, I80A, Q81N, W83E
notes: W83E mutant of P282DR9P1359_G7; the entry holds the mutation
B34: CD8S382 (designed binder)
chain: B1 chain with S32A, S34T, Y38K, P39E, E40H, P42E, G43D, W70S, I80A, Q81N
notes: W70S mutant of P282DR9P1359_G7; the entry holds the mutation
B35: CD8S381 (designed binder)
chain: B1 chain with S32A, S34T, Y38K, P39E, E40H, P42E, G43D, W70F, I80A, Q81N
notes: W70F mutant of P282DR9P1359_G7; the entry holds the mutation
B36: CD8S383 (designed binder)
chain: B1 chain with S32A, S34T, Y38K, P39E, E40H, P42E, G43D, W74Y, I80A, Q81N
notes: W74Y mutant of P282DR9P1359_G7; the entry holds the mutation

These binders were tested against T1, cynomolgus monkey CD8 alpha on primary cynomolgus CD8+ T cells (cynomolgus monkey, UniProt P01732 23-235 (human entry)) (assay: flow cytometry, cyno CD8+ T cells).
T1 construct: also called Cyno CD8alpha; cyno CD8A
T1 sequence (P01732 other isoform, or with tags, fused parts or gaps limits assumed): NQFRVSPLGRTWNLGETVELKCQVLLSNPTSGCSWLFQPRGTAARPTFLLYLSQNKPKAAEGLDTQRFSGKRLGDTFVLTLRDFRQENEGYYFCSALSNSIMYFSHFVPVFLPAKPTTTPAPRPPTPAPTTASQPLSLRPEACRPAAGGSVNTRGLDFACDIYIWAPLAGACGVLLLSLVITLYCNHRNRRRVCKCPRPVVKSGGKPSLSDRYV

What does the source list for B1?
Cyno T-cell Binding 0.2 uM (MFI): 4560 MFI; Cyno T-cell Binding 2 uM (MFI): 54600 MFI

How did the “Cyno T-cell Binding 0.2 uM (MFI)” value turn out when B2 was run?
The value was 4430 MFI.

And the “Cyno T-cell Binding 2 uM (MFI)” value?
The value was 24900 MFI.

B3 was tested. Which “Cyno T-cell Binding 0.2 uM (MFI)” value did it give?
The value was 3160 MFI.

What about the “Cyno T-cell Binding 2 uM (MFI)” value of the same binder?
Its value is 33800 MFI.

Which results are given for B4?
Cyno T-cell Binding 0.2 uM (MFI): 1300 MFI; Cyno T-cell Binding 2 uM (MFI): 36700 MFI

What follows are binders tested against T2, human CD8 alpha (CD8A) on primary human CD8+ T cells (human, UniProt P01732 22-235) (assay: flow cytometry, human CD8+ T cells).
T2 construct: whole, on cells; also called hCD8A
T2 sequence (P01732 22-235): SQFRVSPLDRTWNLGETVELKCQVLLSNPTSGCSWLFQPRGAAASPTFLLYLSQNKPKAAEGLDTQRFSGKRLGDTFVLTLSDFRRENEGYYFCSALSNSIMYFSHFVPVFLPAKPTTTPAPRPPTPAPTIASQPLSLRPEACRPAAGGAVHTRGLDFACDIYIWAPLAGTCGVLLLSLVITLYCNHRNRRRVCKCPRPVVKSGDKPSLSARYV

Which results are given for B1?
Human T-cell Binding 0.2 uM (MFI): 4060 MFI; Human T-cell Binding 2 uM (MFI): 32800 MFI

Which results are given for B2?
Human T-cell Binding 0.2 uM (MFI): 3310 MFI; Human T-cell Binding 2 uM (MFI): 14800 MFI

B3 was tested. Which “Human T-cell Binding 0.2 uM (MFI)” value did it give?
The value was 1830 MFI.

And the “Human T-cell Binding 2 uM (MFI)” value?
The value was 17200 MFI.

Which “Human T-cell Binding 0.2 uM (MFI)” value does the source give for B4 here?
Its value is 458 MFI.

And the “Human T-cell Binding 2 uM (MFI)” value?
Its value is 6300 MFI.

These binders were tested against T3, human CD8A-Fc (in house) (human, UniProt P01732 22-182, limits assumed) (assay: SPR (ProteOn), captured hCD8A-Fc).
T3 construct: captured by goat anti-human Fc on the ProteOn chip; also called hCD8A-Fc; recombinant human CD8 alpha; not shown: linker/tag and Fc of human IgG1
T3 sequence (P01732 22-182 limits assumed): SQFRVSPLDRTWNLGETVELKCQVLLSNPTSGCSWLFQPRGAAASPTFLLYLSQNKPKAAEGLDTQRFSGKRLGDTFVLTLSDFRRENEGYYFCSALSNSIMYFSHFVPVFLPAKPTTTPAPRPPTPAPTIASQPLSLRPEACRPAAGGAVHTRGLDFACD

B1 was tested. Which koff did it give?
The koff was 0.000271 s⁻¹.

For B2, which koff is on record?
Its koff is 0.00014 s⁻¹.

How did the koff turn out when B3 was run?
The koff was 0.001 s⁻¹.

For B4, which koff is on record?
The koff was 0.00174 s⁻¹.

Each binder was assayed against T4, human CD8A-Fc (recombinant human CD8 alpha fused to Fc fragment of human IgG1) (human, UniProt P01732 22-182, limits assumed) (assay: SPR, dissociation rate on recombinant CD8 alpha).
T4 construct: SPR ligand, captured by goat anti-human Fc; also called hCD8A-Fc; recombinant CD8 alpha; not shown: linker with flag (and polyhistidine) tag and Fc fragment of human IgG1; depends on which of the two constructs was used
T4 sequence (P01732 22-182 limits assumed): as above

How did the koff turn out when B5 was run?
Its koff is 0.000152 s⁻¹.

For B6, which koff is on record?
Its koff is 0.000443 s⁻¹.

B7 was tested. Which koff did it give?
Its koff is 0.0309 s⁻¹.

With B8 as the binder, how does the koff read?
The koff was 0.00066 s⁻¹.

Which koff does the source give for B9 here?
Its koff is 0.0226 s⁻¹.

With B10 as the binder, how does the koff read?
The koff was 4.84e-05 s⁻¹.

With B11 as the binder, how does the koff read?
Its koff is 0.0127 s⁻¹.

How did the koff turn out when B12 was run?
The koff was 0.00134 s⁻¹.

For B13, which koff is on record?
Its koff is 0.000184 s⁻¹.

Which koff does the source give for B14 here?
The koff was 0.00032 s⁻¹.

Which koff does the source give for B15 here?
The koff was 0.000152 s⁻¹.

How did the koff turn out when B16 was run?
Its koff is 0.00114 s⁻¹.

With B17 as the binder, how does the koff read?
Its koff is 0.000194 s⁻¹.

Which koff does the source give for B18 here?
Its koff is 0.000403 s⁻¹.

Which koff does the source give for B19 here?
Its koff is 0.000133 s⁻¹.

How did the koff turn out when B20 was run?
Its koff is 0.00083 s⁻¹.

B21 was tested. Which koff did it give?
Its koff is 0.00155 s⁻¹.

B22 was tested. Which koff did it give?
Its koff is 0.00355 s⁻¹.

Which koff does the source give for B23 here?
Its koff is 0.000571 s⁻¹.

How did the koff turn out when B24 was run?
The koff was 0.00403 s⁻¹.

How did the koff turn out when B25 was run?
Its koff is 0.00255 s⁻¹.

B26 was tested. Which koff did it give?
Its koff is 0.00189 s⁻¹.

For B27, which koff is on record?
The koff was 0.000846 s⁻¹.

With B28 as the binder, how does the koff read?
Its koff is 0.0004 s⁻¹.

B29 was tested. Which koff did it give?
The koff was 5.8e-05 s⁻¹.

With B30 as the binder, how does the koff read?
The koff was 4.97e-05 s⁻¹.

Which koff does the source give for B31 here?
The koff was 0.00121 s⁻¹.

Which koff does the source give for B32 here?
The koff was 7.54e-05 s⁻¹.

B33 was tested. Which koff did it give?
The koff was 0.000125 s⁻¹.

B34 was tested. Which koff did it give?
Its koff is 0.247 s⁻¹.

How did the koff turn out when B35 was run?
Its koff is 0.0002 s⁻¹.

Which koff does the source give for B36 here?
The koff was 0.000747 s⁻¹.
